Biological target: T1, Vitronectin receptor, αVβ3 integrin, localized on the HUVEC surface (human, UniProt P06756 31-1048; P05106 27-788)
T1 construct: whole, on cells; Present on bFGF-stimulated HUVEC in the cell adhesion assay; also called integrin αVβ3
Experiment: HUVEC adhesion assay on Saxatilin- and Vitronectin-coated plates

T1 sequence (P06756 31-1048, chain 1 of 2): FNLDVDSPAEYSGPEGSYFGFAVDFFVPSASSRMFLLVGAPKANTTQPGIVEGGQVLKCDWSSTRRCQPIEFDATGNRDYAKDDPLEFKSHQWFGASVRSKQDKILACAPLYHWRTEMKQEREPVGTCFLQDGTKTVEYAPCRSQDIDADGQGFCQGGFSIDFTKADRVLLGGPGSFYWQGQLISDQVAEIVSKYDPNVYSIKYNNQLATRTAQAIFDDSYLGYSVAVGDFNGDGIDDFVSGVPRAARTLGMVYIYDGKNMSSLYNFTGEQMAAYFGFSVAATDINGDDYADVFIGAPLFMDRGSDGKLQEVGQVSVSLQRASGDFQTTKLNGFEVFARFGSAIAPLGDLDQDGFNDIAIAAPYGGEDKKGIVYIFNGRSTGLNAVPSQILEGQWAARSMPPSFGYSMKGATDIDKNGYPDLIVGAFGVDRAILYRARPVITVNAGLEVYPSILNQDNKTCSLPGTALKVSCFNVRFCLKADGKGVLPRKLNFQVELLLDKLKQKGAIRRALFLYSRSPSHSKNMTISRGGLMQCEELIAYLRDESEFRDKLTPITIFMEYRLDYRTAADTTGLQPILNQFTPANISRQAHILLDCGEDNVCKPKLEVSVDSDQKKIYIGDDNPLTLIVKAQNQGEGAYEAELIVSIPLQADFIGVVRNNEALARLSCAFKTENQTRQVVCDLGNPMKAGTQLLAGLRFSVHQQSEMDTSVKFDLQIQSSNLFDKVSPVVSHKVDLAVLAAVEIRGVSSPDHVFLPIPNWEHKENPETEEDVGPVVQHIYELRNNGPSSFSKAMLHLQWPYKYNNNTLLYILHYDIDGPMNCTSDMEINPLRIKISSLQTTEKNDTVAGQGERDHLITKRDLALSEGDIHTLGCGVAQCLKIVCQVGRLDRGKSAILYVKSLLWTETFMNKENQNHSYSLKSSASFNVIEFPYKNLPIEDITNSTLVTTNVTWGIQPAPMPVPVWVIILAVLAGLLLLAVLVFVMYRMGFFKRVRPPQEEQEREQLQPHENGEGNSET
T1 sequence (P05106 27-788, chain 2 of 2): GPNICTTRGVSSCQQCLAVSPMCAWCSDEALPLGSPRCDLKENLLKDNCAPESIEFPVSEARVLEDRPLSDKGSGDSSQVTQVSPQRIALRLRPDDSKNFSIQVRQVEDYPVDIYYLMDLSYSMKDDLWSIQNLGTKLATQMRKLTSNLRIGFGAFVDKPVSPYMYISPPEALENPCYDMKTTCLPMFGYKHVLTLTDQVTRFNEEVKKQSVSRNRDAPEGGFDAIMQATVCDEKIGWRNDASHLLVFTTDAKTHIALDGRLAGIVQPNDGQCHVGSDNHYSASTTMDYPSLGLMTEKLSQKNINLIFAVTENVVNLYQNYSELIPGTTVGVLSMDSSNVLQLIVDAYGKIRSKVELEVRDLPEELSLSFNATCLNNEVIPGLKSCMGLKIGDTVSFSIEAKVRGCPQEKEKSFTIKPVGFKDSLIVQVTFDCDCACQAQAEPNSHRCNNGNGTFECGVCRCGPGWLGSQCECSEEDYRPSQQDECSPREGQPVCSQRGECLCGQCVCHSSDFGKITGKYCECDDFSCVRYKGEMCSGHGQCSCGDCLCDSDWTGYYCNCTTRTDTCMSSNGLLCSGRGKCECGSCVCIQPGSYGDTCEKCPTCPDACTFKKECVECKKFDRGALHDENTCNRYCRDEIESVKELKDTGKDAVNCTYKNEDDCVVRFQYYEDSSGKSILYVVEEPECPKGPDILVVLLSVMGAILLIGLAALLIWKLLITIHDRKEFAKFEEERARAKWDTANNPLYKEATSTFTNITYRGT

B1: recombinant Saxatilin (ligand)
chain: EAGEECDCGAPANPCCDAATCKLRPGAQCAEGLCCDQCRFMKEGTICRMARGDDMDDYCNGISAGCPRNPFHA
B1: binds.

Source: patent US20050032189A1 (published 2005)
